Earlier results, collected in publication PMC3140970.

Target: IRSp53 SH3 (UniProt Q9UQB8)
Sequence (Q9UQB8 374-437): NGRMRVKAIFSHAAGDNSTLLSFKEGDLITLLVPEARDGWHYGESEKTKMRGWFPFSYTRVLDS

Sequence of Eps8 (Q08509 whole entry): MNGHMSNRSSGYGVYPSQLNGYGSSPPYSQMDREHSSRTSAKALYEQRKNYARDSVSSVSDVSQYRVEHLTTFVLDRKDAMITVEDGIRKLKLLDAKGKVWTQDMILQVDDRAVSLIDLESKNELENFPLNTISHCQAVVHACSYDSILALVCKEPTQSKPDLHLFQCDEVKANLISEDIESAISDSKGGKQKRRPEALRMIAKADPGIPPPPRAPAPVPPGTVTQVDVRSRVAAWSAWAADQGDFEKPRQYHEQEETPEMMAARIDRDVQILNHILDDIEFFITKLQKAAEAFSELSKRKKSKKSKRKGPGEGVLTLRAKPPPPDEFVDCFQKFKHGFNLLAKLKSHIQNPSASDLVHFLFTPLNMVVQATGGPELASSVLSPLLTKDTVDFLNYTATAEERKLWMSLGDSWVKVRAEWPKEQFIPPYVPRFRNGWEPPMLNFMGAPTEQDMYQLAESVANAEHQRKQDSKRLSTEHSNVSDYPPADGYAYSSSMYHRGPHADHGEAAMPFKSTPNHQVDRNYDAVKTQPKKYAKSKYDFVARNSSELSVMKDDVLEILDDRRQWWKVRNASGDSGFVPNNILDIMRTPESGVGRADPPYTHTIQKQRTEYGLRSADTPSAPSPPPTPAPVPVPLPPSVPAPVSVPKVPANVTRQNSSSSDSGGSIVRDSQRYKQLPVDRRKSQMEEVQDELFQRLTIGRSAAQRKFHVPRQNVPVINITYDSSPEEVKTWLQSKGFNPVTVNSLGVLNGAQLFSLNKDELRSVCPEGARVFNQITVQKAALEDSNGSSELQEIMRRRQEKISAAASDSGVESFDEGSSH

Eps8 (from UniProt Q08509)
Kd: 10 nM
